Experimental findings from patent US20240269306A1, “B7H4-TARGETED ANTIBODY-DRUG CONJUGATES AND METHODS OF USE THEREOF” (Mersana Therapeutics, Inc., priority 2021, published 2024) are described below.

Broadly, the EC50 is the concentration that produces a half-maximal response. The term Kd denotes the concentration at which binding is half-saturated. A word on the koff: it is a measure of how fast the partners let go of each other. In general, kon refers to a measure of how fast the partners come together.

Like-named read-outs stand apart in the source and are kept apart here.

The target of experiment [1] is T1, Human B7-H4 on the cell surface (MX-1, HCC1569, CAMA-1 cells; HEK-293 cells stably transfected with human B7-H4) (human) (UniProt Q7Z7D3).
T1 sequence: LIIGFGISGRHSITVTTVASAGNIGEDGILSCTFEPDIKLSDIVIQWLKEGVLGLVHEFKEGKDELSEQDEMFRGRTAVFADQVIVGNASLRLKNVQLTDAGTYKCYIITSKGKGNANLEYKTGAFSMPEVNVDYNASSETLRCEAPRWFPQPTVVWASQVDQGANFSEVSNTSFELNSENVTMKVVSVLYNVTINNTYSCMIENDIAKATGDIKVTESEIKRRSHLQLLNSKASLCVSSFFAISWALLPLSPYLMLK
Kind of experiment: flow cytometry, HCC1569 cells.

Experiment [2] concerns the target T1, Human B7-H4 on the cell surface (MX-1, HCC1569, CAMA-1 cells; HEK-293 cells stably transfected with human B7-H4) (human). Nature of the experiment: flow cytometry, MX-1 cells.
Experiment [3] deals with T2, Recombinant human B7-H4 protein (R&D Systems #6576-B7-050) (human) (UniProt Q7Z7D3).
T2 sequence: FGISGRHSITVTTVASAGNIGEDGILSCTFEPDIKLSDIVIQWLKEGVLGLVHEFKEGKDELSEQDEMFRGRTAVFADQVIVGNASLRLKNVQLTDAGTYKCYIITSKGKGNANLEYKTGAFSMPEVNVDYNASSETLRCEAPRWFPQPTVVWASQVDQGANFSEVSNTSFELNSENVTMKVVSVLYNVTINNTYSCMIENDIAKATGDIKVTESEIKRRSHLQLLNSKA
Kind of experiment: BLI (Octet), antibody on anti-human Fc sensor, human B7-H4 in solution, 25 C. Background: In BLI a coated tip is dipped into the sample, and binding shifts an interference pattern.

The target in experiment [4] is T2, Recombinant human B7-H4 protein (R&D Systems #6576-B7-050) (human). Nature of the experiment: BLI (Octet).
For experiment [5] the target is unchanged. Nature of the experiment: ELISA, coated recombinant human B7-H4.
Experiment [6] shares this target. Kind of experiment: ELISA, coated recombinant human B7-H4. This is another data set of the same source. (In general: In an ELISA, binding on a coated surface is turned into a signal by an enzyme label.)
Experiment [7] deals with T1, Human B7-H4 on the cell surface (MX-1, HCC1569, CAMA-1 cells; HEK-293 cells stably transfected with human B7-H4) (human). Nature of the experiment: flow cytometry, MX-1 cells. The source holds these as a separate data set. (In flow cytometry, cells or beads pass a laser one at a time.)

B1: 1D11 antibody (antibody, from another filing, V domains shown)
VH: QVQLQQSGAELVRPGTSVKMSCKASGYTFTSYWIGWAKQRPGHGFEWIGDIYPGGGYTNYNEKFKGKATLTADKSSSTAYMQFSSLTSEDSAIYYCARLDGSSYRGAMDSWGQGTSITVSS
VL: DIQMTQSPSSLSASLGGKVTITCKASQGFNKYVAWYQHKPGQCPRLLIHYTSTLQPGIPARFSGSGSGRDYSFSISNLEPEDSATYFCLQYGNLLYAFGGGTKLEIKR
As to B1, the concentration giving a half-maximal response (EC50) in experiment [1] came to 3.44 nM; in experiment [2] it was 8.83 nM; in experiment [5], 0.52 nM; in experiment [6], 0.86 nM; in experiment [7] it was 4.9 nM. Further, in experiment [3], the Kd was determined as 0.117 nM. Also, the koff in experiment [3] worked out at 1.46e-05 s⁻¹. Moreover, the kon in experiment [3] came to 125000 M⁻¹ s⁻¹. Further, the fold difference of kon against B7-H4 2F9 and variant antibodies in experiment [4] was under 2 fold. In experiment [4], the fold lower Kd than B7-H4 2F9 is over 100 fold.
